From PMC13342644 (2026)

Assays:
[1] = molecular target: NB1; test: ELISA
[2] = molecular target: NB2; test: ELISA

B1: Avi-tagged, biotinylated GDP-mannose transporter Vrg4 from Candida albicans (natural protein)
chain: MDSKHSTSSSSSGSLATRISNSGPISIAAYCLSSILMTVTNKYVLSGFSFNLNFFLLAVQSIVCIVTIGSLKSLNIITYRQFNKDEAKKWSPIAFLLVAMIYTSSKALQYLSIPVYTIFKNLTIILIAYGEVIWFGGKVTTMALSSFLLMVLSSVIAYYGDNAAVKSHDDAFALYLGYFWMLTNCFASAAFVLIMRKRIKLTNFKDFDTMYYNNLLSIPILLICSFIFEDWSSANVSLNFPADNRVTTITAMILSGASSVGISYCSAWCVRVTSSTTYSMVGALNKLPIALSGLIFFEAAVNFWSVSSIFVGFGAGLVYAVAKQKQQKEQSQQLPTTK
modifications: biotin (Avi tag biotinylated using BirA ligase)
- Kd [1]: 109 nM
- Kd [2]: 125 nM
